According to article doi:10.1101/2020.04.03.022855 (bioRxiv, 2020):

Biological target: the molecule itself
Test: cross-linking

B1: Seventeen kilodalton protein (Skp), unlabelled (natural protein, Escherichia coli, UniProt P0AEU7 21-161, looked up)
chain: ADKIAIVNMGSLFQQVAQKTGVSNTLENEFKGRASELQRMETDLQAKMKKLQSMKAGSDRTKLEKDVMAQRQTFAQKAQAFEQDRARRSNEERGKLVTRIQTAVKSVANSQDIDLVVDANAVAYNSSDVKDITADVLKQVK
Question: B1 was tested. Which “stoichiometry N” value did it give?
Answer: 3
